Test results reported in PMC3468502.

Target: BCL11A (Homo sapiens) (UniProt Q9H165)
Assay: EMSA supershift
Settings: with NF-Y, EMSA with nuclear extracts, 100x molar excess competitors, buffer and temperature not given (refs 25-27)

Sequence of UniProt Q9H165 (Q9H165 whole entry): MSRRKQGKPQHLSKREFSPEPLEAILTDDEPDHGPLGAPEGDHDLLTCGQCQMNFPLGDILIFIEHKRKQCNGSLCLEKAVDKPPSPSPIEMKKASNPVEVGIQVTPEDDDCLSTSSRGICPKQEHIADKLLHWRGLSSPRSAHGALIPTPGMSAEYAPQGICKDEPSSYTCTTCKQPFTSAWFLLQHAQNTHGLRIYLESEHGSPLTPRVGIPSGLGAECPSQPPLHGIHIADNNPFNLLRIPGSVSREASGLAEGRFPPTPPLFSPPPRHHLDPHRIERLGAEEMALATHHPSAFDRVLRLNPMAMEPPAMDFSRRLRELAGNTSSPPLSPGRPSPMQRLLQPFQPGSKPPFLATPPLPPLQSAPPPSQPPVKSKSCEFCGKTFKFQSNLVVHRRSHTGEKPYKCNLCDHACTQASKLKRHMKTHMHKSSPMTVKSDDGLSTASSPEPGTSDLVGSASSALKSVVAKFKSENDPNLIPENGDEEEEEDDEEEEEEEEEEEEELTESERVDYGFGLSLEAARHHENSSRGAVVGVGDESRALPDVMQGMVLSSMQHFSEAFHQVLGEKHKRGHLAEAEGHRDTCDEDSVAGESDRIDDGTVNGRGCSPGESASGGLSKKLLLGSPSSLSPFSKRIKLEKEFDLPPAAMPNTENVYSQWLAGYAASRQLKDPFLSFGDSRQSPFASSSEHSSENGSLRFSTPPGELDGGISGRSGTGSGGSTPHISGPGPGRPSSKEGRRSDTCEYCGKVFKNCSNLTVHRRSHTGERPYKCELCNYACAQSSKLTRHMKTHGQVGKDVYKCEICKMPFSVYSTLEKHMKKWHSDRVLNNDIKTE

“GCCTTGCCTTGACCAATAGCCTTGACAAGGCAAACTTGACCAATAGTCTTAGAGTATCCAGTGAGGCCAGGGGCCGGCGGCTGGCTAGGGATGA (double strand) [Wt proximal gamma-globin promoter probe (94 bases)]” showed a binding signal (% of NF-Y band supershifted) (D14 extract) of 40, a binding signal (% of NF-Y band supershifted) (K562 extract) of 30 and a binding signal (% of NF-Y band supershifted) (fetal liver extract) of 30.
